Experimental data as given in patent US20200270339A1 (CEPHALON, published 2020).
Numbering of substitutions follows the chain as printed.

B1: Antibody 63 (antibody, V domains shown)
VH: QVQLQESGPGLVKPSGTLSLTCAVSGGSISSSNWWSWVRQPPGKGLEWIGEIYHYGYTNYNPSLKSRVTISVDKSKNQFSLKLSSVTAADTAVYYCAREGIGWPSFDYWGQGTLVTVSS
VL: SSELTQDPAASVALGQTVRITCQGDTLRNYYASWYQQKPGQAPILVIYGKNNRPSGIPDRFSGSSSGNTASLTITGAQAEDEADYYCNSRDSSGKNLVFGGGTKLTVL
B2: Antibody 69 (antibody, V domains shown)
VH: B1 VH
VL: B1 VL with N29S, D91E
B3: Antibody 78 (antibody, V domains shown)
VH: B1 VH with S84I
VL: B1 VL with N29S, D91E
B4: Antibody 64 (antibody, V domains shown)
VH: B1 VH
VL: SSELTQDPAASVALGQTVRITCQGDTLRSYYASWYQQKPGQAPILVIYGKNNRPSGIPDRFSGSSSGNTASLTITGAQAEDEADYYCNSRDSSGKNLVFGGGTKLTVLG
B5: Antibody 74 (antibody, V domains shown)
VH: B1 VH with S84I
VL: B1 VL with D91E
B6: Antibody 81 (antibody, V domains shown)
VH: B1 VH with S84I
VL: B1 VL with N29S, S92F
B7: Antibody 79 (antibody, V domains shown)
VH: B1 VH with S84I
VL: B1 VL with N29S, S92L
B8: Antibody 68 (antibody, V domains shown)
VH: B1 VH
VL: B4 VL with S29N, S92F
B9: Antibody 80 (antibody, V domains shown)
VH: B1 VH with S84I
VL: B1 VL with N29S, S92E
B10: Antibody 72 (antibody, V domains shown)
VH: B1 VH
VL: B1 VL with N29S, S92F
B11: Antibody 71 (antibody, V domains shown)
VH: B1 VH
VL: B1 VL with N29S, S92E
B12: Antibody 77 (antibody, V domains shown)
VH: B1 VH with S84I
VL: B1 VL with S92F
B13: Antibody 67 (antibody, V domains shown)
VH: B1 VH
VL: B1 VL with S92E
B14: Antibody 75 (antibody, V domains shown)
VH: B1 VH with S84I
VL: B1 VL with S92L
B15: Antibody 76 (antibody, V domains shown)
VH: B1 VH with S84I
VL: B1 VL with S92E
B16: Antibody 73 (antibody, V domains shown)
VH: B1 VH with S84I
VL: B1 VL with N29S
B17: Antibody 65 (antibody, V domains shown)
VH: B1 VH
VL: B1 VL with D91E
B18: Antibody 66 (antibody, V domains shown)
VH: B1 VH
VL: B4 VL with S29N, S92L

Each binder was assayed against human IL-15 complexed with the IL-15 Receptor-alpha (human, UniProt P40933 49-162) (assay: cell-based or functional assay).
human IL-15 complexed with the IL-15 Receptor-alpha, sequence (P40933 49-162 limits assumed, chain 1 of 2): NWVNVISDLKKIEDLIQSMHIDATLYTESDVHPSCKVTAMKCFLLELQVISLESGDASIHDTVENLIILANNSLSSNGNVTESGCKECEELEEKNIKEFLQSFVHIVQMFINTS
human IL-15 complexed with the IL-15 Receptor-alpha, sequence (chain, as listed by the source limits assumed, chain 2 of 2): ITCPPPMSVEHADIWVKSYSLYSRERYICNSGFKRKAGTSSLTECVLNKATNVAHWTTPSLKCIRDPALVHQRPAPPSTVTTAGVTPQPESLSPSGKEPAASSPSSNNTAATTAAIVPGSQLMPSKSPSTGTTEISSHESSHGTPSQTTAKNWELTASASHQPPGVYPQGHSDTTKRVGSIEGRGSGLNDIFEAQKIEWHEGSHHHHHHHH

Compared with B1, B2 is higher in “IC 50 (NK-92) in pM” value: 4.21 pM for the first, 162 pM for the second.

Going from B3 to B4, the “IC 50 (NK-92) in pM” value falls from 168 pM to 13.6 pM.

Compared with B5, B6 is lower in “IC 50 (NK-92) in pM” value: 33.9 pM for the first, 17.3 pM for the second.

Going from B7 to B8, the “IC 50 (NK-92) in pM” value falls from 12.4 pM to 5.34 pM.

Going from B9 to B10, the “IC 50 (NK-92) in pM” value falls from 22.8 pM to 20.9 pM.

Going from B11 to B12, the “IC 50 (NK-92) in pM” value falls from 26.4 pM to 5.69 pM.

Going from B13 to B14, the “IC 50 (NK-92) in pM” value falls from 7.69 pM to 3.14 pM.

Going from B15 to B16, the “IC 50 (NK-92) in pM” value rises from 7.69 pM to 11.8 pM.

First: B17
Second: B18
The “IC 50 (NK-92) in pM” value of the first is higher: 42.5 pM for the first, 6.04 pM for the second.
